# Measurements: patent US20230233645A1, “EFFECTIVE TREATMENTS FOR VASCULAR ASSOCIATED MACULOPATHY, SEVERE MACULOPATHY, LATE-STAGE MACULOPATHY, AND ABERRANT CHORIOCAPILLARIS” (UNIVERSITY OF UTAH RESEARCH FOUNDATION, priority 2011, published 2023)
# Columns and labels:
# DQ elastin = experiment: In vitro elastin degradation assay using DQ elastin; assay type: biochemical; settings: DQ elastin substrate
# Protocol: Therefore, studies were performed to determine whether HTRA1 degrades elastin, a major component of Bruch's membrane. Recombinant HTRA1 was incubated with dye-labeled elastin at 37° C. for two hrs and the fluorescence of the released elastin peptides was monitored at 513 nm. […] In an additional positive control assay, HTRA1 elastase activity was measured by fluorescence using various concentrations of elastase enzyme starting with 0.04 ng/well of porcine pancreatic elastase and 100 ng/well of ProteaImmun HtrA1. DQ Elastin substrate was 25 ug/ml.
# Recombinant HtrA1 protein expressed and purified from Sf9 cells was purchased from ProteaImmun (Cat. #30600103). The HtrA1 elastase activity was measured using a fluorescent EnzChekElastase Assay Kit from Invitrogen (Cat. #E12056) using the protocol provided, except substrate concentration was 12.5 µg/mL. HtrA1 concentration was titrated from 200-12.5 ng/well in two-fold dilutions. Activity was measured in 30-minute increments for a total of 2 hours.
# The explanation for the elastin degradation in both the Bruch's membrane and the choroid vessels in the HTRA1 mice is that the protease activity of overexpressed HTRA1, which is secreted from RPE, caused the degeneration. Since HTRA1 was not known to have elastase activity, an in vitro elastin degradation assay was performed using DQ elastin, a soluble elastin labeled with quenched BODIPY FL dye, as a substrate. Purified recombinant human HTRA1 degraded elastin with a specific activity of 4.4±0.8 u/mg (n=3). […] To eliminate the possibility that the depletion of the elastic layers of the choroidal vessels and Bruch's membrane was the result of downregulation of elastin expression, we analyzed the protein level of soluble elastin in the RPE/choroid of hHTRA1^+ and WT mice by western blot. […] This is similar to what has been observed in human donors with AMD and with aberrant choriocapillaris lobules.
# HTRA1 = HTRA1 (Homo sapiens, UniProt Q92743); settings: binds covalently to the active-site serine of HTRA1; cited from earlier work
# HTRA1, sequence (Q92743 23-480): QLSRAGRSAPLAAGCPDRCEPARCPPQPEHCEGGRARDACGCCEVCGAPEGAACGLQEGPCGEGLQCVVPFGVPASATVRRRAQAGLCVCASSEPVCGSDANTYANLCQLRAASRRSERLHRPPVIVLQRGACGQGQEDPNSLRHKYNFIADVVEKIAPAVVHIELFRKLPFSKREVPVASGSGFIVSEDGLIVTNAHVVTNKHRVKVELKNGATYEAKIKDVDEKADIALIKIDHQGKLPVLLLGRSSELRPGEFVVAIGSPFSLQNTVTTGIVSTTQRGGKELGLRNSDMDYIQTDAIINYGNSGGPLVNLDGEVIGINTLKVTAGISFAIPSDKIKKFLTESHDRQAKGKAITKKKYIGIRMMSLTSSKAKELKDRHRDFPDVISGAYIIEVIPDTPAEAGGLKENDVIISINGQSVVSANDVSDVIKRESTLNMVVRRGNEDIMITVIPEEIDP
substance,measurement,setting,value
recombinant human HTRA1: purified recombinant human HTRA1 serine protease,"elastase activity, times less than that of porcine pancreas elastase",DQ elastin,~30 times
same,specific activity of elastin degradation,DQ elastin,4.4±0.8 u/mg
DPMFKLboroV,IC50,HTRA1,2600 nM
porcine pancreas elastase: reference elastase enzyme,specific activity of elastin degradation,DQ elastin,135±5.5 u/mg
